B1: CCDC6 (parent)
chain: TLFKKIQALQKEKETLAVNYEKEE
B2: PRPH (parent)
chain: DEIEFLKKLHEEELRDLQVSVESQ
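Note: lentivirally expressed fusions sorted by FACS into six bins by GFP to DsRed ratio, PSI derived from sequencing read proportions per bin multiplied by bin number.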

The variants in one data set derive from B1. The experiment in a line: protein stability index of a GFP-peptide fusion (GPS, HEK-293T) (PSI 1-6); higher = more stable. The conditions noted are these: c terminus: a fixed tail appended.
As to TLFKWIQALQKEKETLAVNYEKEE, the protein stability index worked out at 3.67. Take TLFKTIQALQKEKETLAVNYEKEE: the protein stability index was 2.95. On the same count and under the same terms, to TLFKKIQALQKEKETLCVNYEKEE belongs 3.39. For the variant TLFKKIQALQKEKETLTVNYEKEE, the protein stability index was determined as 3.18. Same read-out and setting: the result for TLFKKIQALQKEKETLAVNSEKEE reads 3.84; that for TLFKKIQALQKEWETLAVNYEKEE, 1.91; that for TLFKKIEALQKEKETLAVNYEKEE, 3.57. With TLFKKIQALQKEKEFLAVNYEKEE, the protein stability index was 2.06.

Turning to TLFKKIQALQKEKETLAVNYEAEE, the protein stability index turned out to be 3.27.

The next data set covers variants of B2. Described as above. The settings on record: c terminus: a fixed tail appended.
For DEIEFLKKLHLEELRDLQVSVESQ, the protein stability index was found to be 4.11.

Regarding DEIEFLKKLHHEELRDLQVSVESQ, the protein stability index is 4.42. With DEIEFLKKLHNEELRDLQVSVESQ, the protein stability index amounted to 4.57. For the variant DEIEFLKKLHYEELRDLQVSVESQ, the protein stability index is 2.95.

With DEIEFLKKLHREELRDLQVSVESQ, the protein stability index turned out to be 4.23. Same read-out and setting: to DEIEFLKKLHCEELRDLQVSVESQ belongs 4.09; to DEIEFLKKLHEEELRDLQVGVESQ, 4.29; to DEIEFLKKLHEEELRDLQVAVESQ, 4.78. For DEIEFLKKLHEEELRDLQVLVESQ, the protein stability index was 4.2. Still for that read-out and setting: the result for DEIEFLKKLHEEELRDLQVIVESQ reads 4.27; that for DEIEFLKKLHEEELRDLQVTVESQ, 4.87; that for DEIEFLKKLHEEELRDLQVQVESQ, 4.86. For the variant DEIEFLKKLHEEELRDLQVVVESQ, the protein stability index came out at 4.88.

For the variant DEIEFLKKLHEEELRDLQVCVESQ, the protein stability index came out at 5.06. As to DEIEFLKKWHEEELRDLQVSVESQ, the protein stability index worked out at 4.38. Same read-out and setting: the result for DEIEFLKKCHEEELRDLQVSVESQ reads 4.9; that for DEIEFLKKNHEEELRDLQVSVESQ, 5.34; that for DEIEFLKKPHEEELRDLQVSVESQ, 5.52.

With DEIEFLKKGHEEELRDLQVSVESQ, the protein stability index was determined as 5.58. Still for that read-out and setting: to DEIEFLKKRHEEELRDLQVSVESQ belongs 5.29; to DEIEFLKKDHEEELRDLQVSVESQ, 5.27; to DEIEFLKKTHEEELRDLQVSVESQ, 5.3. Turning to DEIEFLKKSHEEELRDLQVSVESQ, the protein stability index was 5.4.

On to DEIEFLKKKHEEELRDLQVSVESQ, for which the protein stability index turned out to be 5.49. As for DEIEFLKKAHEEELRDLQVSVESQ, the protein stability index was determined as 5.02. DEIEFLKKLHEEELRFLQVSVESQ: the protein stability index was found to be 3.1. On to DEIEFLKKLHEEELRWLQVSVESQ, for which the protein stability index came out at 3.15. The same measure, in the same setting: the result for DEIEFLKKLHEEELRQLQVSVESQ reads 4.35; that for DEIEFLKKLHEEELRYLQVSVESQ, 3.49; that for DEIEFLKKLHEEELRILQVSVESQ, 3.82. Same read-out and setting: to DEIEFLKKLHEEELRDLQNSVESQ belongs 4.87; to DEIEFLKKLHEEELRDLQGSVESQ, 5.15; to DEIEFLKKLHEEELRDLQLSVESQ, 4.85.

As to DEIEFLKKLHEEELRDLQYSVESQ, the protein stability index was found to be 4.56. Same read-out and setting: the result for DEIEFLKKLHEEELRDLQMSVESQ reads 4.76; that for DEIEFLKKLHEEELRDLQPSVESQ, 4.93. Same read-out and setting: to DEIEFLKKLHEEELRDLQRSVESQ belongs 5.06; to DEIEFLKKLHEEEYRDLQVSVESQ, 4.6; to DEIEFLKKLHEEEKRDLQVSVESQ, 4.92. Still for that read-out and setting: to DEIEFLKKLHEEETRDLQVSVESQ belongs 5.78; to DEIEFLKKLHEEEWRDLQVSVESQ, 4.38; to DEIEFLKKLHEEEERDLQVSVESQ, 4.85.

Consider DEIEFLKKLHEEEARDLQVSVESQ, for which the protein stability index was found to be 4.95. On the same count and under the same terms, the result for DEIEFLKKLIEEELRDLQVSVESQ reads 3.37; that for DEIEFLKKLSEEELRDLQVSVESQ, 5.18. The same measure, in the same setting: the result for DEIEFLKKLVEEELRDLQVSVESQ reads 3.52; that for DEIEFLKKLEEEELRDLQVSVESQ, 5.23. On to DEIEFLKKLKEEELRDLQVSVESQ, for which the protein stability index amounted to 4.78. The same measure, in the same setting: the result for DEIEFLKKLHEEELRDKQVSVESQ reads 4.81. DEIEFLKKLHEEELRDQQVSVESQ: the protein stability index is 5.15.

For the variant DEIEFLKKLHEEELRDNQVSVESQ, the protein stability index turned out to be 4.45.

For DEIEFLKKLHEEELRDAQVSVESQ, the protein stability index is 5.15. On the same count and under the same terms, to DEIEFLKKLHEEELRDPQVSVESQ belongs 5.16; to DEIEFLKKLHEEELRDMQVSVESQ, 4.97. In the case of DEIEFLKKLHEEELRDWQVSVESQ, the protein stability index was found to be 4.8. Take DEIEFLKKLHEEELRDEQVSVESQ: the protein stability index turned out to be 4.98. The same measure, in the same setting: the result for DEIEFLKKLHEEELRDLQVSVETQ reads 4.95; that for DEIEFLKKLHEEELRDLQVSVEWQ, 3.45. Take DEIEFLKKLHEEELRDLQVSVEPQ: the protein stability index turned out to be 4.71. Same read-out and setting: the result for DEIEFLKKLHEEELRDLQVSVEFQ reads 4.36; that for DEIEFLKKLHEEELRDLQVSVELQ, 4.54; that for DEIEFLKKLHEEELRDLQVSVEEQ, 4.67. For DEIEFLKKLHEEELRDLQVSVEDQ, the protein stability index is 5.04. Still for that read-out and setting: the result for DEIEFLKKLHEEELRDLQVSVEAQ reads 4.04; that for DEIEFLKKLHEEELRDLQVSVEHQ, 4.94. The same measure, in the same setting: the result for DEIEFLKKLHEEELRDLQVSVEVQ reads 4.59. With DEIEFMKKLHEEELRDLQVSVESQ, the protein stability index turned out to be 4.89.

In the case of DEIEFPKKLHEEELRDLQVSVESQ, the protein stability index came to 5.33. The same measure, in the same setting: to DEIEFTKKLHEEELRDLQVSVESQ belongs 5.13. Regarding DEIEFWKKLHEEELRDLQVSVESQ, the protein stability index is 4.61. With DEIEFCKKLHEEELRDLQVSVESQ, the protein stability index stood at 5.09. On to DEIEFAKKLHEEELRDLQVSVESQ, for which the protein stability index was found to be 5.48.

For the variant DEIEFFKKLHEEELRDLQVSVESQ, the protein stability index came out at 4.42. Still for that read-out and setting: to DEIEFLNKLHEEELRDLQVSVESQ belongs 5.18; to DEIEFLIKLHEEELRDLQVSVESQ, 2.03; to DEIEFLEKLHEEELRDLQVSVESQ, 4.83. On the same count and under the same terms, to DEIEFLGKLHEEELRDLQVSVESQ belongs 4.52; to DEIEFLLKLHEEELRDLQVSVESQ, 2.37. The same measure, in the same setting: the result for DEIEFLTKLHEEELRDLQVSVESQ reads 3.15; that for DEIEFLVKLHEEELRDLQVSVESQ, 2.59; that for DEIEFLYKLHEEELRDLQVSVESQ, 2.42. For DEIEFLHKLHEEELRDLQVSVESQ, the protein stability index came out at 4.21. Still for that read-out and setting: to DEIEFLKKLHEEELRDLQVSVESS belongs 4.26; to DEIEFLKKLHEEELRDLQVSVESE, 4.57; to DEIEFLKKLHEEELRDLQVSVESI, 4.35.

The values above are taken from the supplement of paper PMC10567573.
